The results in this text go back to the supplement of paper PMC12042874.

± gives the uncertainty stated by the source.

This series can be described thus: amyloid nucleation score (Sup35N fusion, yeast selection) (log enrichment); library NNK3; higher = more nucleation; inactive = no reads after selection. Put shortly: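 The nucleation score is a DiMSum log enrichment of output over input reads, centred on the mode score of non-aggregating sequences. Sequences under 100 input reads were excluded, and reads came from Illumina sequencing of plasmid inserts. Psi-negative yeast expressing Sup35N fused to peptides of 20 random codons were induced with 100 μM copper sulfate for 24 hours and grown 7 days at 30°C on medium lacking adenine and uracil. Random libraries had three technical output replicates.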
Turning to QSFGSHYASVMAKY, the amyloid nucleation score result was “inactive”. Then YNMSDTVRYHMSQVADCYIV, with “inactive”; and IYYFSLSMVLRCSEWTLYVY, with “inactive”; and NLVGTMATRYCRAHQEAREW, with “inactive”. The entry for KAPNPI is “inactive”; for WRLVLLHW it is “inactive”. The entry for FRYVHIHLRYQPGF is “inactive”. Regarding KLCTVSNRSVMPGIT, the amyloid nucleation score entry was “inactive”. Regarding REVPT, the amyloid nucleation score entry is “inactive”. The entry for ESNGVSGPAQMERDTVPEVP is “inactive”; for RLVNVNDTGVLDVSVITRCS it is 0.207 ± 0.6; for ESVSNSYVQTKWEYQLC it is “inactive”. Then THNVRDMLPATETFASKSGG, with 1.1 ± 0.17; and GYMWGLEDNFALWTGRNNYV, with “inactive”.

Take LSFYMVKGLKNKI: the amyloid nucleation score result is “inactive”. Then DMWKFTRLLFFCDSKRCSAD, with “inactive”; and TNESIMCGLAT, with “inactive”. The entry for YFLGWRYQCDIVIFWYQLRV is “inactive”; for GVKYVDNIGLRGWFFCRHAV it is “inactive”; for KDCQKNGWLSSTNLELLQCP it is “inactive”.

SSARRKNLRYEGVLRTEARV: the amyloid nucleation score entry is “inactive”. Then ASATARHTPNIY, with “inactive”; and RRNMYLL, with -1.31 ± 2.5.

As for RSSLNDNRYKCNSGSSVYGS, the amyloid nucleation score entry is “inactive”.

Take KSSWAIKSSNGTW: the amyloid nucleation score result was “inactive”.

STYLF: the amyloid nucleation score entry was “inactive”. The figure for VIGWKINGGYPERTS is 0.239 ± 0.42. The figure for YNLSRHQRTSTSLRCKGQSF is 0.241 ± 0.44. Take VKVLYSIAMGIGHGSIGKVC: the amyloid nucleation score was -0.835 ± 0.96.

On to GECWAPVYDFWI, for which the amyloid nucleation score entry is “inactive”. Then NRKGIR, with -0.009 ± 0.58; and LFLRTEKIRFRSTRLVTLSC, with “inactive”. Then CKFCFSAIFSLLYNRIGAPQ, with “inactive”; and HHIMIATLSG, with 0.711 ± 0.12.

Regarding FYIICWWVLDQDFCAWL, the amyloid nucleation score entry is “inactive”.

Consider VCSVVARWFVESFCCISWMC, for which the amyloid nucleation score result is “inactive”.

Take NFRLSVLKVLCYVIVED: the amyloid nucleation score amounted to 2.14 ± 0.057. Then MCEGAIQQRILLSMKFCCKW, with 0.037 ± 0.87; and CSRLAQWFMLVSF, with “inactive”; and QGMALPLTTGGGVNKRTCYG, with “inactive”. The entry for LSNHSSLASRSYFTNCN is “inactive”; for MPNYNLSGLNWVRCG it is “inactive”. Then CVLWYCCYTQLSMQKCNSRM, with “inactive”; and LAMPTLLQASVTNLVGDSIV, with -0.265 ± 0.39; and SSLNSMIIIRFHTSKGHVCK, with 1.32 ± 0.17. Turning to CYSVDRDV, the amyloid nucleation score entry is “inactive”.

As for FMSSFISMYFASAFHYAMWH, the amyloid nucleation score entry was “inactive”. Regarding RCFRLIKVLKLLTVFEIITF, the amyloid nucleation score entry was “inactive”. Then LRNQITQIDDT, with “inactive”. Then SKAYKAYNVLRLISI, with “inactive”; and DKTYYYRDDSLV, with “inactive”. The figure for NLNSFSGAFVLIWGATVHFC is 1.96 ± 0.075; for LYLKYLELEILRPYGAFICH it is “inactive”. Turning to QYLPGRTVFCMQIYDVQLYP, the amyloid nucleation score entry was “inactive”.

Take CSRWMWPENYRFSSEVPWYI: the amyloid nucleation score result is “inactive”. Then GLCRLIDLKM, with “inactive”; and KRVCCCKNSSSCE, with “inactive”.

As for KDLQR, the amyloid nucleation score entry is “inactive”. The entry for QSSLVDGWKNLTKVRCGDYS is “inactive”.

With CVFKTNVNGLMEEVLSGFKY, the amyloid nucleation score entry was “inactive”. The entry for PNNSLETTYFRVTWSFE is “inactive”; for LCRRLQTGMAYHMVSSYFNW it is “inactive”.

For the substance NSLCKLGFFSMVKYV, the amyloid nucleation score entry is “inactive”.

As for SLGVEVKCNTIP, the amyloid nucleation score entry was “inactive”.

YIFFMDLNYLSSNSITVRAV had an amyloid nucleation score of 1.53 ± 0.074. In the case of MISLMTYSYSRYMYIVSPVP, the amyloid nucleation score entry was “inactive”. Regarding SNFTTPLHE, the amyloid nucleation score result is “inactive”. The entry for WGLLV is “inactive”; for TAESEMNQCVLSRYFSSAIR it is “inactive”; for RYGSNTSLVANCAGPRPGLV it is “inactive”.

Take SRPFICSPFQIWAFKFTPMN: the amyloid nucleation score result was “inactive”.

Substance RLNLNVIL returned an amyloid nucleation score of 2.58 ± 0.087. The figure for FLCMLVYI is 1.23 ± 0.11; for LDHRGIRFFN it is “inactive”; for GLPNGGDPCLREVGSHLVTH it is -0.347 ± 1.4.

Turning to FCLMHRRWMVVCACIYRWLK, the amyloid nucleation score entry was “inactive”. The entry for FMVILMRAISMSKIKSILYH is “inactive”.

Turning to GGTNVFGAWSHNQRILCQKG, the amyloid nucleation score result is “inactive”. Then WGLLRYYE, with 0.091 ± 0.28. Then RGAGSTESLTNGRGSIAIHR, with “inactive”. LYILGQIFR: the amyloid nucleation score result is “inactive”. The entry for NTTHNVNV is “inactive”.

Regarding VSSSVVYTFVMSSLLGVDNE, the amyloid nucleation score result was “inactive”. Then VMRIVATQRAGWTGTREPGM, with “inactive”.

Take VMFMIAGNC: the amyloid nucleation score entry is “inactive”. Then LFSEFQ, with 0.574 ± 0.32. With NAYTAHGYDKLRNQSKVAYR, the amyloid nucleation score entry is “inactive”. The entry for EVSFDNLRGWH is “inactive”; for ISYTTSNYITLVYKLTNRAY it is 0.911 ± 0.13; for GTGGSVRPHCEFSLRSSYMV it is “inactive”. As to VGVYITMVYVSIKENRVEGN, the amyloid nucleation score worked out at 0.804 ± 0.17.

Take SFGMCTMYFYLNVCMAKGAR: the amyloid nucleation score result is “inactive”. The entry for GYGCVTKV is “inactive”. The figure for SFSLYLFPSRGLAPLPTAWL is 1.86 ± 0.089; for EHEFYTKDNFLRGIFYNTNL it is “inactive”.

As to DHLQVHYCGRHVLGAKKFAR, the amyloid nucleation score entry is “inactive”. For the substance VKISMNYKTQLTWLLFAWIL, the amyloid nucleation score entry is “inactive”. Then VTLLPVSVCINAFNLILGPF, with 3.08 ± 0.065.
